Target: the molecule itself
Experiment: crystal structure; HALC3_919 alone, 2.1 Å, space group P 21 3, PDB 9C7Z

B1: HALC3_919 (designed binder)
chain: MSGSEELLEELRELLERLQELLELIEQGKITPEQLREAIALLIEVLQILYEALRELAEQLQRLREELG
notes: also called HALC3_919 trimerization domain; source: E. coli, purified (Ni-NTA, SNAC cleavage, SEC)
stoichiometry N: 3
